From patent publication US20230272056A1 (Merck Sharp & Dohme, published 2023) come the findings set out here.

Experiment [1] addresses T1, human LAP-TGFB2 Fc fusion (human).
T1 construct: also called human LAP-TGFβ2; LAP-TGFβ isoform 2
Kind of experiment: SPR. The method, then: (§1) A Series S CM4 sensor chip (GE Healthcare, catalog BR100534) was immobilized with an anti-human Fc capture antibody following the kit protocol (GE Healthcare, catalog BR100839) on a Biacore T200 instrument with 1× HBS-EP+ (Teknova, catalog H8022). […] Binding specificity between human LAP-TGFβ isoforms 2 and 3 and the tyrosine scanning double mutants were performed in 1× HEPES-buffered saline with EDTA and surfactant (HBS)-EP)+with 0.1 mg/mL BSA at 25° C. […] The binding data were double referenced by subtraction of signal from a reference (capture surface only) flow cell and the negative control 0 nM Fab injection. Binding rate constants were determined by fitting the data with a 1:1 binding model (GE Healthcare Biacore T200 Evaluation software 3.0).

Experiment [2] has as its target T2, human LAP-TGFB3 Fc fusion (human).
T2 construct: also called human LAP-TGFβ3; LAP-TGFβ isoform 3
Kind of experiment: SPR. As to the method: as §1
For orientation: In SPR one partner is held on a chip, and binding of the other changes the refractive index at the surface.

Experiment [3] concerns the target T3, human LAP-TGFB1 Fc fusion (human).
T3 construct: also called human LAP-TGFβ1-Fc; human LAP-TGFβ-Fc isoform 1
In words: SPR, antigen-Fc captured, Fab analyte.

Experiment [4] concerns the target T3, human LAP-TGFB1 Fc fusion. In words: SPR.
The target of experiment [5] is T1, human LAP-TGFB2 Fc fusion. Kind of experiment: SPR pH 7.4.
Experiment [6] deals with T2, human LAP-TGFB3 Fc fusion. In words: SPR pH 7.4.
For experiment [7], the target named is T3, human LAP-TGFB1 Fc fusion. In words: SPR pH 7.4, antigen captured on Fab 54BLH. From the text:
A Series S C1 sensor chip (Cytiva, catalog BR100535) was immobilized with low densities of high affinity Fab 54BLH on a Biacore T200 instrument with 1×HBS-EP+(Teknova, catalog H8022). This surface served as a monovalent capture surface for a low-density layer of heterodimer human LAP-TGFβ1 complex leaving the second binding site exposed for monovalent kinetic binding analysis with both mAbs and Fabs. Immobilized flow cell 1 served as the reference and flow cells 2, 3 and 4 were used to evaluate the binding interaction between human LAP-TGFβ1 and yeast display mutant mAbs and Fabs.
Approximately 15-25 RU of human LAP-TGFβ1-Fc was captured to the Fab capture surface followed by injection of 1:3 serially diluted Fabs and mAbs from 6 nM to 0.07 nM (Fabs: 54BLH, 55BLH, 60BLH, 63BLH, 64BLH-mAbs: 69BLH, 70BLH) and 1:3 serially diluted Fab and mAbs from 60 nM to 0.74 nM (Fabs: 59BLH, 66BLH, 67BLH—mAbs: 74BLH, 75BLH, 78BLH, 79BLH, 81BLH, 82BLH) including 0 nM. The binding data was double referenced by subtraction of signal from a reference flow cell and the 0 nM injections for evaluation of Fabs and mAbs respectively. Binding rate constants were calculated/determined by fitting the data with a 1:1 binding model (Cytiva Biacore T200 Evaluation software 3.0).

The target of experiment [8] is T3, human LAP-TGFB1 Fc fusion. Kind of experiment: SPR pH 6.0, antigen captured on Fab 54BLH. The method, boiled down:
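Human LAP-TGFβ1-Fc (~15-25 RU) captured on a low-density 54BLH Fab surface in HBS-EP+, leaving one epitope free for monovalent kinetics. Fabs/mAbs injected in 1:3 series, 6–0.07 nM or 60–0.74 nM plus 0 nM. Double-referenced; rate constants from 1:1 binding fit.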

Experiment [9] deals with T3, human LAP-TGFB1 Fc fusion. Kind of experiment: SPR pH 7.4, antigen-Fc captured, Fab analyte.
For experiment [10], the target named is T3, human LAP-TGFB1 Fc fusion. In words: SPR pH 6.0, antigen-Fc captured, Fab analyte. As to the method:
A Series S CM4 sensor chip (Cytiva, catalog BR100534) was immobilized with an anti-human Fc capture antibody following the kit protocol (Cytiva, catalog BR100839) on a Biacore T200 instrument with 1× HBS-EP+ (Teknova, catalog H8022). […] The binding data were double referenced by subtraction of signal from a reference (capture surface only) flow cell and the 0 nM Fab injection. Binding rate constants were determined by fitting the data with a 1:1 binding model (Cytiva Biacore T200 Evaluation software 3.0).

Experiment [11] concerns the target T3, human LAP-TGFB1 Fc fusion. In words: SPR pH 7.4, antigen-Fc captured, Fab analyte. This is another data set of the same source.

Where a chain is given by its changes, count along the chain named. Names may count otherwise.

T3 sequence (chain, as listed by the source limits assumed): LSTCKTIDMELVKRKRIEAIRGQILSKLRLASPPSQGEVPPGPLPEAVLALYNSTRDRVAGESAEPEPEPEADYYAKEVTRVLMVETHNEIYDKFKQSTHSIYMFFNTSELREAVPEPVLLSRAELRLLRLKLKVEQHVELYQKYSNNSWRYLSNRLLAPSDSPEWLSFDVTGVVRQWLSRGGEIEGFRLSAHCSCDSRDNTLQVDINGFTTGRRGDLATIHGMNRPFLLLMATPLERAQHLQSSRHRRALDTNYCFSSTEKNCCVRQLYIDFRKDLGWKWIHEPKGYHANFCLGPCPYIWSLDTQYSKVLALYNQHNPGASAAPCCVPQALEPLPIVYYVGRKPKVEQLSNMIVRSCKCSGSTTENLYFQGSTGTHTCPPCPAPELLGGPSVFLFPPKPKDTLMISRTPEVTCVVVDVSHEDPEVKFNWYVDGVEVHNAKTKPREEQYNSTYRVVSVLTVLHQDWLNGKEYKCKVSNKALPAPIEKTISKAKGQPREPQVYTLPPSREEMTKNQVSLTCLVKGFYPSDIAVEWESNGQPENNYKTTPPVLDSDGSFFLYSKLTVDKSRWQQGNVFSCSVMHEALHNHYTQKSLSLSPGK
T2 sequence (chain, as listed by the source limits assumed): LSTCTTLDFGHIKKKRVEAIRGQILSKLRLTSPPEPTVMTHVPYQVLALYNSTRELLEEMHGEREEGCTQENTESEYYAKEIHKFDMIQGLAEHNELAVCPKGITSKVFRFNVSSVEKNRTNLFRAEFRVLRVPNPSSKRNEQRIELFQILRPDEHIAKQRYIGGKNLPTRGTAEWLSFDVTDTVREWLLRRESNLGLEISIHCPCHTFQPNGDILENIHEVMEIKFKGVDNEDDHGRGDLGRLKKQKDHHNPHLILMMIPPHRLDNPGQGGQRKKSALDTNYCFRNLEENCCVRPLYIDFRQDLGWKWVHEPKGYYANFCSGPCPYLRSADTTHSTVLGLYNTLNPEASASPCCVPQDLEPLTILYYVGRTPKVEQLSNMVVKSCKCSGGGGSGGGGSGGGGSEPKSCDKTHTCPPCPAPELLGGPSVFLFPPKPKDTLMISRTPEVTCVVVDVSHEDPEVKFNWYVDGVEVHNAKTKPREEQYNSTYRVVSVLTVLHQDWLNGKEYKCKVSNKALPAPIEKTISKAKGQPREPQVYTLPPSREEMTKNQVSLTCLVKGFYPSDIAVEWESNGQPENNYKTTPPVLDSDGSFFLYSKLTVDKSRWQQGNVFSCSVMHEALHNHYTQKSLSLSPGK
T1 sequence (chain, as listed by the source limits assumed): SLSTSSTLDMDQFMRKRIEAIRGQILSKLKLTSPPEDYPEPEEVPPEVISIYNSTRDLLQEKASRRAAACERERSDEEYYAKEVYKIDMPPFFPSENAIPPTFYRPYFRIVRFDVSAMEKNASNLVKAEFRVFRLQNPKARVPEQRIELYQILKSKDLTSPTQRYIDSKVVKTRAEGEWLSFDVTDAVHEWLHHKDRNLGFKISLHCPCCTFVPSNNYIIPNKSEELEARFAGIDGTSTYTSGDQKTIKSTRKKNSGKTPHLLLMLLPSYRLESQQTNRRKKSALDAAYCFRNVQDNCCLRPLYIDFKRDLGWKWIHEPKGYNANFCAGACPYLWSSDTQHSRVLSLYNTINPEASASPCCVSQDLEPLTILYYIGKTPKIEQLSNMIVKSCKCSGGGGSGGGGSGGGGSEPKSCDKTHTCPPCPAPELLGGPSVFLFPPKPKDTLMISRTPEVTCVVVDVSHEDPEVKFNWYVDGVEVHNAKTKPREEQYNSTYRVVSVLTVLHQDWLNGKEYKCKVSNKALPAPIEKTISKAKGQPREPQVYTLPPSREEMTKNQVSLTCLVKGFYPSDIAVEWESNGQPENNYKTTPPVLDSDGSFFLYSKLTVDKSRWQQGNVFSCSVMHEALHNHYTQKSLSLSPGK

B1: VH W33Y/VL R53Y (91BJM) (Fab, V domains shown)
VH: EVQLVQSGAEVKKPGASVKVSCKASGYTFTSYYMHWVRQAPGQGLEWMGRIDPQSGGIKYAQKFQGRATLTVDTSTSTAYMELSRLRSDDTAVYYCARWDYGGYFDVWGQGTLVTVSS
VL: DIQMTQSPSSLSASVGDRVTITCRASQDITNYLNWYQQKPGKAVKLLIYYTSYLHSGVPSRFSGSGSGTDYTLTISSLQPEDFATYFCQQGDTLPWTFGQGTKLEIKR
notes: also called VH33/VL53
On to B1, for which the binding result in experiment [1] is “no binding (tested: 1000 nM Fab)”. The binding result in experiment [2] was “no binding (tested: 1000 nM Fab)”. In experiment [3], the “Fold improvement in KD” value is 7 fold; binding was characterised by a dissociation constant (Kd) of 11800 pM; the koff (commonly a measure of how fast the partners let go of each other) stood at 0.0154 s⁻¹; the kon (as a rule, the second-order rate constant of association) worked out at 910000 M⁻¹ s⁻¹.

B2: 59BLH (Fab, V domains shown)
VH: B1 VH with Y33D, K59R
VL: DIQMTQSPSSLSASVGDRVTITCRASQDIYNYLNWYQQKPGKAVKLLIYYTSVLETGVPSRFSGSGSGTDYTLTISSLQPEDFATYFCQQGDTLPWTFGQGTKLEIK
notes: also called 11BLM Fab
Consider B2, for which the “Fold change in KD from pH 7.4 to pH 6” value in experiment [4] turned out to be 0.7 fold. For the same molecule, the binding result in [5] and in experiment [6] was “no binding (tested: 1000 nM Fab)” each time. Besides, the Kd (as a rule, the free concentration of one partner at which half of the binding sites on the other are occupied at equilibrium, for simple one-to-one binding) was 44 pM in experiment [7]; 179 pM in experiment [8]; 66 pM in experiment [9]; 49 pM in experiment [10]; 66 pM in [11]. Besides, the off-rate constant (koff) in [7] is 0.000575 s⁻¹; in experiment [8] it was 0.00126 s⁻¹; in experiment [9] it was 0.00047 s⁻¹; in experiment [10], 0.000543 s⁻¹; in [11], 0.00047 s⁻¹. The association rate constant (kon) in experiment [7] came to 1.31e+07 M⁻¹ s⁻¹; in [8], 7.08e+06 M⁻¹ s⁻¹; in experiment [9] it was 7.1e+06 M⁻¹ s⁻¹; in [10] it was 1.11e+07 M⁻¹ s⁻¹; in experiment [11], 7.1e+06 M⁻¹ s⁻¹. The “Fold improvement in KD” value in [9] worked out at 887 fold.

B3: 63BLH (Fab, V domains shown)
VH: B1 VH with Y33D
VL: B2 VL with V53R
notes: also called 15BLM Fab; 015BLM Fab
For B3, the “Fold change in KD from pH 7.4 to pH 6” value in experiment [4] was 1.2 fold. Further, the binding result in experiment [5] and in [6] was “no binding (tested: 1000 nM Fab)” in each case. In addition, the Kd in experiment [7] came to 355 pM; in experiment [8], 1060 pM; in experiment [9], 297 pM; in [10] it was 369 pM; in [11] it was 297 pM. Moreover, the koff turned out to be 0.00341 s⁻¹ in experiment [7]; 0.00796 s⁻¹ in [8]; 0.00198 s⁻¹ in [9]; 0.00277 s⁻¹ in experiment [10]; 0.00198 s⁻¹ in experiment [11]. Moreover, the kon in [7] is 9.61e+06 M⁻¹ s⁻¹; in experiment [8] it was 7.51e+06 M⁻¹ s⁻¹; in [9] it was 6.79e+06 M⁻¹ s⁻¹; in experiment [10], 7.51e+06 M⁻¹ s⁻¹; in experiment [11], 6.79e+06 M⁻¹ s⁻¹. Further, the “Fold improvement in KD” value in [9] was found to be 197 fold.

B4: VH W33Y/VL T30Y (90BJM) (Fab, V domains shown)
VH: B1 VH
VL: B1 VL with T30Y, Y53R
notes: also called VH33/VL30
Regarding B4, in experiment [1], the binding result is given as “no binding (tested: 1000 nM Fab)”. For the same molecule, the binding result in experiment [2] is on record as “no binding (tested: 1000 nM Fab)”. Besides, in experiment [3], the “Fold improvement in KD” value turned out to be 20 fold, the dissociation constant Kd came to 4000 pM, the off-rate constant (koff) was found to be 0.0075 s⁻¹ and the kon was found to be 1.89e+06 M⁻¹ s⁻¹.

B5: 67BLH (Fab, V domains shown)
VH: B1 VH with Y33D, W99Y, Y101H
VL: B2 VL with V53Y
notes: also called 19BLM Fab
For B5, the “Fold change in KD from pH 7.4 to pH 6” value in [4] is 1.7 fold. The binding result in [5] and in [6] was “no binding (tested: 1000 nM Fab)” throughout. In addition, the Kd in [7] worked out at 2360 pM; in experiment [8], 18800 pM; in [9] it was 961 pM; in experiment [10], 1590 pM; in experiment [11], 961 pM. Further, the koff was determined as 0.0155 s⁻¹ in experiment [7]; 0.046 s⁻¹ in [8]; 0.00476 s⁻¹ in experiment [9]; 0.0122 s⁻¹ in experiment [10]; 0.00476 s⁻¹ in experiment [11]. Besides, the on-rate (kon) in experiment [7] worked out at 6.69e+06 M⁻¹ s⁻¹; in [8], 2.44e+06 M⁻¹ s⁻¹; in [9] it was 4.95e+06 M⁻¹ s⁻¹; in experiment [10], 7.63e+06 M⁻¹ s⁻¹; in [11], 4.95e+06 M⁻¹ s⁻¹. The “Fold improvement in KD” value in [9] was 61 fold.

B6: 55BLH (Fab, V domains shown)
VH: B1 VH with Y33D, K59R
VL: B2 VL with N31S, V53N
notes: also called 07BLM Fab
For B6, the “Fold change in KD from pH 7.4 to pH 6” value in experiment [4] is 1.8 fold. For the same molecule, the binding result in experiment [5] and in [6] was “no binding (tested: 1000 nM Fab)” throughout. Moreover, the Kd in [7] was determined as 125 pM; in experiment [8] it was 335 pM; in [9] it was 59 pM; in experiment [10] it was 105 pM; in experiment [11] it was 59 pM. Also, the koff in experiment [7] was 0.00109 s⁻¹; in experiment [8] it was 0.00248 s⁻¹; in [9], 0.000528 s⁻¹; in experiment [10], 0.000757 s⁻¹; in experiment [11] it was 0.000528 s⁻¹. The kon in [7] stood at 8.75e+06 M⁻¹ s⁻¹; in [8], 7.39e+06 M⁻¹ s⁻¹; in experiment [9] it was 9.08e+06 M⁻¹ s⁻¹; in [10], 7.17e+06 M⁻¹ s⁻¹; in [11], 9.08e+06 M⁻¹ s⁻¹. Moreover, the “Fold improvement in KD” value in experiment [9] is 992 fold.

B7: VH W33Y/VL T93Y (92BJM) (Fab, V domains shown)
VH: B1 VH
VL: B1 VL with Y53R, T93Y
notes: also called VH33/VL93
Take B7: the binding result in experiment [1] is “no binding (tested: 1000 nM Fab)”. Besides, the binding result in experiment [2] was “no binding (tested: 1000 nM Fab)”. Besides, in [3], the “Fold improvement in KD” value was found to be 4 fold, the equilibrium dissociation constant (Kd) is 20600 pM, the koff is 0.0134 s⁻¹ and the kon worked out at 650000 M⁻¹ s⁻¹.

B8: 60BLH (Fab, V domains shown)
VH: B1 VH with Y33D, I58V
VL: B2 VL with T93E
notes: also called 12BLM Fab
On to B8, for which, in experiment [4], the “Fold change in KD from pH 7.4 to pH 6” value was 2.8 fold. Moreover, the binding result in [5] and in [6] was “no binding (tested: 1000 nM Fab)” in each case. The Kd in experiment [7] turned out to be 36 pM; in experiment [8], 296 pM; in experiment [9] it was 24 pM; in [10] it was 67 pM; in experiment [11], 24 pM. Besides, the koff was 0.000348 s⁻¹ in [7]; 0.00167 s⁻¹ in [8]; 0.000186 s⁻¹ in experiment [9]; 0.000481 s⁻¹ in experiment [10]; 0.000186 s⁻¹ in experiment [11]. Also, the kon in experiment [7] was found to be 9.65e+06 M⁻¹ s⁻¹; in [8] it was 5.65e+06 M⁻¹ s⁻¹; in [9] it was 7.91e+06 M⁻¹ s⁻¹; in [10], 7.23e+06 M⁻¹ s⁻¹; in [11], 7.91e+06 M⁻¹ s⁻¹. Also, the “Fold improvement in KD” value in experiment [9] came out at 2440 fold.
